# Laboratory results reported in patent publication US20250017964A1, “ENGINEERING OR INDUCING PDGF AND/OR PDGFR SIGNALING TO ENHANCE NK CELL THERAPY” (City of Hope, priority 2021, published 2025).
# B1: IL-12: recombinant human IL-12 p70 (200-12); recombinant murine IL-12 in the mouse NK cell test (protein, UniProt P29459 23-219; P29460 23-328, looked up)
# Interleukin-12 subunit alpha: RNLPVATPDPGMFPCLHHSQNLLRAVSNMLQKARQTLEFYPCTSEEIDHEDITKDKTSTVEACLPLELTKNESCLNSRETSFITNGSCLASRKTSFMMALCLSSIYEDLKMYQVEFKTMNAKLLMDPKRQIFLDQNMLAVIDELMQALNFNSETVPQKSSLEEPDFYKTKIKLCILLHAFRIRAVTIDRVMSYLNAS
# Interleukin-12 subunit beta: IWELKKDVYVVELDWYPDAPGEMVVLTCDTPEEDGITWTLDQSSEVLGSGKTLTIQVKEFGDAGQYTCHKGGEVLSHSLLLLHKKEDGIWSTDILKDQKEPKNKTFLRCEAKNYSGRFTCWWLTTISTDLTFSVKSSRGSSDPQGVTCGAATLSAERVRGDNKEYEYSVECQEDSACPAAEESLPIEVMVDAVHKLKYENYTSSFFIRDIIKPDPPKNLQLKPLKNSRQVEVSWEYPDTWSTPHSYFSLTFCVQVQGKSKREKKDRVFTDKTSATVICRKNASISVRAQDRYYSSSWSEWASVPCS
# modifications: p70 heterodimer
# notes: recombinant human IL-12 p70 (200-12); recombinant murine IL-12 in the mouse NK cell test
# Assays:
# murine NK cells = test: PDGFRβ expression in murine splenic NK cells, flow cytometry; type: cell-based, mouse; conditions: splenic NK cells of C57BL/6 mice, mouse cytokines 10 ng/ml, 24 h
# Description: (§1) FIGS. 7A-7F. […] Data shown are representative histograms and mean fluorescence intensity (MFI) of PDGFRα. […] Expression levels of PDGFRβ were examined by flow cytometry (n=6). […] Data shown are the percentages of PDGFRβ^+ NK cells among total NK cells (n=5). […] Data shown are representative histograms with MFI of PDGFRβ expression. (F) Expression levels of PDGFRβ on NK cells from IL-15 transgenic (Tg) mice were determined by flow cytometry. Data shown are representative histograms. Data represent three independent experiments.
# Mouse NK cells were isolated from the spleen of C57BL/6J or IL-15 transgenic mice, using the EasySep Mouse NK Cell Isolation Kit ([…] Technologies) as previously described (11).
# Cells were stained with the indicated cell-surface markers and/or fixed/permeabilized using a Fixation/Permeabilization Kit (eBioscience). For intracellular staining of IFN-γ and PDGF-D, 5 μg/ml Brefeldin A (BioLegend) was added for 4 h before cell harvest. Intracellular staining of Ki67 was performed by fixing and permeabilizing with the Foxp3/Transcription Factor Staining Kit (eBioscience). […] Data were analyzed using NovoExpress software (Agilent Technologies).
# [1] = test system: PDGFRβ expression in human NK cells; test: Cytokine-induced PDGFRβ expression in purified human NK cells, flow cytometry; type: cell-based; conditions: cytokine 10 ng/ml, 24 h; IL-15 effect dose- and time-dependent
# Excerpt: Data shown are the percentages of PDGFRβ^+ NK cells among total NK cells (n=5). […] Bar=20 μm. […] Data represent three independent experiments. Data shown are means SD.
# as §1
# NK cells were cultured in RPMI 1640 with 10% heat-inactivated FBS (Gibco) at 37° C. in a 5% CO2 humidified incubator. For NK cell transduction, PDGFRB cDNA ORF clone (Cat: HG10514-G) was purchased from Sino Biological and cloned into pCDH-CMV-MCS-EF1-copGFP lentivirus vector (System Biosciences). To produce lentivirus, we transfected the lentiviral transfer vector DNA, together with psPAX2 packaging (Addgene) and pMD2.G envelope plasmid DNA (Addgene), into HEK293T cells; using a polyethyenimine (PEI) transfection protocol (Polysciences). Concentrated lentivirus was added to primary NK cells cultured in RPMI 1640 medium supplemented with 10% FCS and 10 jig/mL polybrene with 2,000×g centrifugation for 2 h. […]
molecule,measurement,setting,value
B1,PDGFRβ expression in murine NK cells,murine NK cells,did not express PDGFRβ
same,PDGFRβ expression,[1],ineffective
